Each block holds one binder with its values, some of them ahead of it.
Tests used:
[1] = molecular target: T1, CD40 extracellular Domain 2 GST fusion protein (human, UniProt P25942 61-104); assay: SDS-PAGE and western blot of GST-domain fusion proteins from insect cell supernatant
T1 construct: Secreted from insect cells with a GP67 secretion signal; not shown: glutathione S-transferase (GST) fusion partner
T1 chain: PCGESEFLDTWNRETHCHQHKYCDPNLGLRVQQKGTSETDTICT

[2] = molecular target: T2, CD40 Domain 2 peptide, spot 21 (human); assay: SPOTs membrane of 10mer peptides, antibody at 10 µg/ml
T2 construct: 10mer on a SPOTs membrane
T2 peptide: KYCDPNLGLR

[3] = molecular target: T3, CD40 Domain 2 peptide, spot 22 (human); assay: as above
T3 construct: 10mer on a SPOTs membrane
T3 peptide: YCDPNLGLRV

[4] = molecular target: T4, CD40 Domain 2 peptide, spot 20 (human); assay: as above
T4 construct: 10mer on a SPOTs membrane
T4 peptide: HKYCDPNLGL

[5] = molecular target: T5, CD40 Domain 2 peptide, spot 18 (human); assay: as above
T5 construct: 10mer on a SPOTs membrane
T5 peptide: HQHKYCDPNL

[6] = molecular target: T6, CD40 Domain 2 peptide, spot 19 (human); assay: as above
T6 construct: 10mer on a SPOTs membrane
T6 peptide: QHKYCDPNLG

[7] = molecular target: T7, Recombinant soluble CD40-his (human, UniProt P25942 21-193); assay: Biacore SPR: antibody captured on immobilized protein A, CD40-his flowed at varying concentrations; 1:1 model, global fit
T7 construct: Soluble recombinant CD40 with his tag used in Biacore

[8] = molecular target: T7, Recombinant soluble CD40-his; assay: Biacore SPR, CD40-his over captured antibody
[9] = molecular target: human CD40 on the cell surface (human, UniProt P25942 20-277); assay: cell-based or functional assay
[10] = molecular target: T8, CD40 extracellular Domain 4 GST fusion protein (human, UniProt P25942 145-187); assay: Western blot, GST fusion of the domain from insect cell supernatant
T8 construct: Expressed in insect cells with a GP67 secretion signal; only the domain stood in the assay; not shown: GST fusion partner
T8 chain: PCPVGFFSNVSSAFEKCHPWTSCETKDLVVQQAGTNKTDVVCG

[11] = molecular target: T9, CD40 extracellular Domain 3 GST fusion protein (human, UniProt P25942 105-144); assay: as above
T9 construct: Expressed in insect cells with a GP67 secretion signal; only the domain stood in the assay; not shown: GST fusion partner
T9 chain: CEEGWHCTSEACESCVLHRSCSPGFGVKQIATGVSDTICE

[12] = molecular target: T10, CD40 extracellular Domain 1 GST fusion protein (human, UniProt P25942 21-60); assay: as above
T10 construct: Expressed in insect cells with a GP67 secretion signal; only the domain stood in the assay; not shown: GST fusion partner
T10 chain: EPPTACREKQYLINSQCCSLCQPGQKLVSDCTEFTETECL

[13] = molecular target: T11, CD40 extracellular Domain 2 GST fusion protein (human, UniProt P25942 61-104); assay: Western blot, GST fusion of Domain 2 from insect cell supernatant
T11 construct: Expressed in insect cells with a GP67 secretion signal; not shown: GST fusion partner
T11 chain: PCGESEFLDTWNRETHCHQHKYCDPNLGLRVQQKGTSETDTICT

[14] = molecular target: T12, CD40 Domain 2 10mer peptide, spot 19 (QHKYCDPNLG) (human); assay: SPOTs peptide membrane probed with the mAb at 10 µg/ml, anti-human IgG beta-galactosidase secondary; spot 19 listed as positive
T12 peptide: QHKYCDPNLG

[15] = molecular target: T13, CD40 Domain 2 10mer peptide, spot 21 (KYCDPNLGLR) (human); assay: SPOTs peptide membrane probed with the mAb at 10 µg/ml, anti-human IgG beta-galactosidase secondary; spot 21 listed as positive
T13 peptide: KYCDPNLGLR

[16] = molecular target: T14, CD40 Domain 2 10mer peptide, spot 22 (YCDPNLGLRV) (human); assay: SPOTs peptide membrane probed with the mAb at 10 µg/ml, anti-human IgG beta-galactosidase secondary; spot 22 listed as positive
T14 peptide: YCDPNLGLRV

[17] = molecular target: T15, CD40 Domain 2 10mer peptide, spot 20 (HKYCDPNLGL) (human); assay: SPOTs peptide membrane probed with the mAb at 10 µg/ml, anti-human IgG beta-galactosidase secondary; spot 20 listed as positive
T15 peptide: HKYCDPNLGL

[18] = molecular target: T16, CD40 Domain 2 10mer peptide, spot 18 (HQHKYCDPNL) (human); assay: SPOTs peptide membrane probed with the mAb at 10 µg/ml, anti-human IgG beta-galactosidase secondary; spot 18 listed as positive
T16 peptide: HQHKYCDPNL

[19] = molecular target: T2, CD40 Domain 2 peptide, spot 21; assay: SPOTs membrane of 10mer peptides, stripped and reprobed
[20] = molecular target: T3, CD40 Domain 2 peptide, spot 22; assay: as above
[21] = molecular target: T4, CD40 Domain 2 peptide, spot 20; assay: as above
[22] = molecular target: T14, CD40 Domain 2 10mer peptide, spot 22 …; assay: SPOTs peptide membrane stripped and reprobed with the mAb; spot 22 listed as recognized
[23] = molecular target: T13, CD40 Domain 2 10mer peptide, spot 21 …; assay: SPOTs peptide membrane stripped and reprobed with the mAb; spot 21 listed as recognized
[24] = molecular target: T15, CD40 Domain 2 10mer peptide, spot 20 …; assay: SPOTs peptide membrane stripped and reprobed with the mAb; spot 20 listed as recognized

Sequence of human CD40 on the cell surface (P25942 20-277): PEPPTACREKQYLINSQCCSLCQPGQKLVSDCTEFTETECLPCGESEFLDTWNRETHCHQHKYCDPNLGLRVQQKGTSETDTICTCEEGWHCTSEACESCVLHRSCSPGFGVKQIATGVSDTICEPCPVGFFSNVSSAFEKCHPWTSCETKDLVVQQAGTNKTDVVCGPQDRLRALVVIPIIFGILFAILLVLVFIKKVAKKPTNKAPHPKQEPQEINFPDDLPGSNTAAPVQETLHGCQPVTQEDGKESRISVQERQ

B1: CHIR-12.12 (antibody, human IgG1, kappa)
heavy: not shown
light: DIVMTQSPLSLTVTPGEPASISCRSSQSLLYSNGYNYLDWYLQKPGQSPQVLISLGSNRASGVPDRFSGSGSGTDFTLKISRVEAEDVGVYYCMQARQTPFTFGPGTKVDIRRTVAAPSVFIFPPSDEQLKSGTASVVCLLNNFYPREAKVQWKVDNALQSGNSQESVTEQDSKDSTYSLSSTLTLSKADYEKHKVYACEVTHQGLSSPVTKSFNRGEC
binding result [1]: binds
binding result [2]: binds
binding result [3]: binds
binding result [4]: binds
binding result [5]: binds
binding result [6]: binds
Kd [7]: 0.51 nM
koff [7]: 0.000124 s⁻¹
kon [7]: 241000 M⁻¹ s⁻¹
fold difference in the off rate against CHIR-5.9 [8]: 121 fold
fold higher affinity against CHIR-5.9 [8]: 24 fold
average IC50 of inhibition of CD40 ligand-induced lymphocyte proliferation, lymphocytes from 6 donors [9]: 0.047 nM

B3: anti-CD40 monoclonal antibody CHIR-12.12 (antibody, human IgG1, kappa)
light: DIVMTQSPLSLTVTPGEPASISCRSSQSLLYSNGYNYLDWYLQKPGQSPQVLISLGSNRASGVPDRFSGSGSGTDFTLKISRVEAEDVGVYYCMQARQTPFTFGPGTKVDIRRTVAAPSVFIFPPSDEQLKSGTASVVCLLNNFYPREAKVQWKVDNALQSGNSQESVTEQDSKDSTYSLSSTLTLSKADYEKHKVYACEVTHQGLSSPVTKSFNRGEC
heavy: not shown
notes: Fully human IgG1 kappa
binding result [14]: binds
binding result [15]: binds
binding result [16]: binds
binding result [17]: binds
binding result [18]: binds

B6: monoclonal antibody CHIR-5.9 (antibody, human IgG1, kappa)
light: AIVMTQPPLSSPVTLGQPASISCRSSQSLVHSDGNTYLNWLQQRPGQPPRLLIYKFFRRLSGVPDRFSGSGAGTDFTLKISRVEAEDVGVYYCMQVTQFPHTFGQGTRLEIKRTVAAPSVFIFPPSDEQLKSGTASVVCLLNNFYPREAKVQWKVDNALQSGNSQESVTEQDSKDSTYSLSSTLTLSKADYEKHKVYACEVTHQGLSSPVTKSFNRGEC
heavy: not shown
notes: Fully human IgG1 kappa anti-human CD40 mAb; Leader residues (1-20 light, 1-19 heavy) left out as stated; also called mAb CHIR-5.9
binding result [10]: no binding
binding result [11]: no binding
binding result [12]: no binding
binding result [13]: binds

The next lines start with the values.

binding result [10]: no binding
binding result [11]: no binding
binding result [12]: no binding
binding result [13]: binds
B2: monoclonal antibody CHIR-12.12 (antibody, human IgG1, kappa)
light: DIVMTQSPLSLTVTPGEPASISCRSSQSLLYSNGYNYLDWYLQKPGQSPQVLISLGSNRASGVPDRFSGSGSGTDFTLKISRVEAEDVGVYYCMQARQTPFTFGPGTKVDIRRTVAAPSVFIFPPSDEQLKSGTASVVCLLNNFYPREAKVQWKVDNALQSGNSQESVTEQDSKDSTYSLSSTLTLSKADYEKHKVYACEVTHQGLSSPVTKSFNRGEC
heavy: not shown
notes: Fully human IgG1 kappa anti-human CD40 mAb; Leader residues (1-20 light, 1-19 heavy) left out as stated

binding result [1]: binds
binding result [19]: binds
binding result [20]: binds
binding result [21]: binds
Kd [7]: 12.2 nM
koff [7]: 0.015 s⁻¹
kon [7]: 1.24e+06 M⁻¹ s⁻¹
B4: CHIR-5.9 (antibody, human IgG1, kappa)
heavy: not shown
light: AIVMTQPPLSSPVTLGQPASISCRSSQSLVHSDGNTYLNWLQQRPGQPPRLLIYKFFRRLSGVPDRFSGSGAGTDFTLKISRVEAEDVGVYYCMQVTQFPHTFGQGTRLEIKRTVAAPSVFIFPPSDEQLKSGTASVVCLLNNFYPREAKVQWKVDNALQSGNSQESVTEQDSKDSTYSLSSTLTLSKADYEKHKVYACEVTHQGLSSPVTKSFNRGEC
notes: also called mAb CHIR-5.9

binding result [22]: binds
binding result [23]: binds
binding result [24]: binds
B5: anti-CD40 monoclonal antibody CHIR-5.9 (antibody, human IgG1, kappa)
light: AIVMTQPPLSSPVTLGQPASISCRSSQSLVHSDGNTYLNWLQQRPGQPPRLLIYKFFRRLSGVPDRFSGSGAGTDFTLKISRVEAEDVGVYYCMQVTQFPHTFGQGTRLEIKRTVAAPSVFIFPPSDEQLKSGTASVVCLLNNFYPREAKVQWKVDNALQSGNSQESVTEQDSKDSTYSLSSTLTLSKADYEKHKVYACEVTHQGLSSPVTKSFNRGEC
heavy: not shown
notes: Fully human IgG1 kappa; also called mAb CHIR-5.9; CHIP-5.9

— patent publication EP2149585A1 (Novartis Vaccines and Diagnostics, Inc., dated 2010)
